Assay results reported in US20220235142A1 (SHANGHAI GENBASE BIOTECHNOLOGY, published 2022).

What was measured:
[1] = biological target: T1, CEACAM6 protein overexpressed on CHO cells (UniProt P40199 35-320, limits assumed); assay: flow cytometry on CHO-CEACAM6 cells
T1 construct: whole, on cells; also called CHO-CEACAM6
T1 sequence (looked up): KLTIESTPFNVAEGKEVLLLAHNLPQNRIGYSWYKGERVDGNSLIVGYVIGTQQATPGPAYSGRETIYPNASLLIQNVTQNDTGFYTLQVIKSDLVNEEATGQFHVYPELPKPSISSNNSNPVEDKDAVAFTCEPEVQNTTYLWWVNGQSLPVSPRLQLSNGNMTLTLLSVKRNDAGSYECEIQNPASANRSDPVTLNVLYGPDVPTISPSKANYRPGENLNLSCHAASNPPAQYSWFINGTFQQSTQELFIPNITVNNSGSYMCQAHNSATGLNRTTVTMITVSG
Protocol: (§1) Flow cytometry (FACS) was used to detect the binding of antibody to LOVO tumor cells that naturally expressed human CEACAM5 protein or cells that overexpressed different CEACAM proteins. In short, cells were first collected, washed with PBS, counted, and diluted to obtain 2*10⁶/ml cell suspension; 10 μl of an antibody working solution was added to 100 μl of the cell suspension, and incubated at 4° C. for 30 min in the dark; after washing twice with PBS, a corresponding fluorescent-labeled secondary antibody Goat-anti-Human IgG (H+L) (Invitrogen) was added, incubated at 4° C. for 30 min in the dark, after washing twice with PBS, it was suspended in 400 μl of FACS buffer, and the binding situations of the antibody to the cells were detected by FACS.
(§2) The binding situations of the supernatants of the chimeric antibody UM05-6L and the control antibody UM05-8 (anti-CEACAM5 antibody, prepared by the hybridoma method in our laboratory) to different cells at a concentration of 3 μg/mL were detected, in which SW620-CEACAM1 was a cell overexpressing CEACAM1 protein, SW620-CEACAM3 was a cell overexpressing CEACAM3 protein, CHO-CEACAM6 was a cell overexpressing CEACAM6 protein, CHO-CEACAM7 was a cell overexpressing CEACAM7 protein, and CHO-CEACAM8 was a cell overexpressing CEACAM8 protein. […]

human CEACAM5 protein = biological target: T2, human CEACAM5 protein (human, UniProt P06731 35-685, limits assumed); assay: ELISA, plate coated with human CEACAM5 protein at 1 µg/mL, goat anti-human IgG HRP
T2 construct: Protein used as ELISA coating; the immunogen was CEACAM5 protein (L2C01001) purified from tumor patients; also called CD66e; carcinoembryonic antigen cell adhesion molecule 5
T2 sequence (looked up): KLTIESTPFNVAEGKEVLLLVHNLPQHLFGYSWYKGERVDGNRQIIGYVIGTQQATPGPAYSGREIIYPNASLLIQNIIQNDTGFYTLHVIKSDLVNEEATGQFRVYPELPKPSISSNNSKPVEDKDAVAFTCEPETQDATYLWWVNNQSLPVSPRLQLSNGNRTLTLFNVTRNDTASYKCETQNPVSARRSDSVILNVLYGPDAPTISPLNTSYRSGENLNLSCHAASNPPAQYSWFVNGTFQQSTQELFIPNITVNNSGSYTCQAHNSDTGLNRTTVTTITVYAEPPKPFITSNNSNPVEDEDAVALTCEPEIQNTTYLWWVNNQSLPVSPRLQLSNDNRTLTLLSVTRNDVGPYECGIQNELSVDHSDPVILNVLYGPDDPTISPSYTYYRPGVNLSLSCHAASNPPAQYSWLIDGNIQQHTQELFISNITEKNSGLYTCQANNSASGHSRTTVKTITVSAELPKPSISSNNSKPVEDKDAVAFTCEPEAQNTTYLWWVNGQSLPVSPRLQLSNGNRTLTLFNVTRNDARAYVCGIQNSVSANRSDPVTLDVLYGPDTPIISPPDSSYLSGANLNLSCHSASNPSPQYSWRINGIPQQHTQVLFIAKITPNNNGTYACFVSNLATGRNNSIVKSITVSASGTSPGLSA
Protocol: On the next day, it was first washed with 300 μL of PBST (Tween20: 0.5‰) for 3 times, then blocked with 100 μL/well of 5% BSA/PBS for 1 hour, and shaken at room temperature. Washing was performed 3 times with 300 μL of PBST. A series of dilution solutions of antibody samples were prepared with PBS, and added at 100 μL/well to the 96-well plate and shaken at room temperature for 1 hour. Washing was performed 3 times with 300 μL of PBST. A secondary antibody goat anti-human IgG HRP solution was prepared, added at 100 μL/well to the 96-well plate, and shaken at room temperature for 30 minutes. Washing was performed 4 times with 300 μL of PBST. 100 μL/well TMB was added to perform color development for 20 min. 100 μL/well of 0.6N H₂SO₄ was added to stop the color development, and OD450 nm was detected.

[2] = biological target: T3, CEACAM3 protein overexpressed on SW620 cells (UniProt P40198 35-252, limits assumed); assay: flow cytometry on SW620-CEACAM3 cells
T3 construct: whole, on cells; also called SW620-CEACAM3
T3 sequence (looked up): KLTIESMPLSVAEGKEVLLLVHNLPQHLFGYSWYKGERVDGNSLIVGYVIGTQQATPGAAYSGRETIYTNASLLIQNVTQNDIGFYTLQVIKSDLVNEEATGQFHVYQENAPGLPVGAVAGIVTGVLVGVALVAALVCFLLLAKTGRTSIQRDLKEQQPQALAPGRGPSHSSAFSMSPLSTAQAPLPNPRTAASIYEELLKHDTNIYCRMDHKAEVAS
Protocol: as §1, §2

[3] = biological target: T4, CEACAM1 protein overexpressed on SW620 cells (UniProt P13688 35-526, limits assumed); assay: flow cytometry on SW620-CEACAM1 cells
T4 construct: whole, on cells; also called SW620-CEACAM1
T4 sequence (looked up): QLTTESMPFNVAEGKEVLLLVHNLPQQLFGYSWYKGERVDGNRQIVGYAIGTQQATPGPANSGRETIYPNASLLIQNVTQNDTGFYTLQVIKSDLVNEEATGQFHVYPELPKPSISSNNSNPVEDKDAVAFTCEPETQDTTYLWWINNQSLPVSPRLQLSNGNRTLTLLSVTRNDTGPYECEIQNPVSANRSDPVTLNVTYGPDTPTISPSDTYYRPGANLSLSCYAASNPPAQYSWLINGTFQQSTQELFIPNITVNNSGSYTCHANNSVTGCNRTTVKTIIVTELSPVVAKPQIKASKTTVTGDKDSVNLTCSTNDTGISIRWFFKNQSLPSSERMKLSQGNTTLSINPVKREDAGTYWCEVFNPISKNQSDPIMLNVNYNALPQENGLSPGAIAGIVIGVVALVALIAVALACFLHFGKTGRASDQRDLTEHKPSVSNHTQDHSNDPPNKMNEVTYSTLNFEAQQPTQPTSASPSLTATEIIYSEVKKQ
Protocol: as §1, §2

[4] = biological target: T5, human CEACAM5 protein naturally expressed on LOVO tumor cells (human, UniProt P06731 35-685); assay: flow cytometry on LOVO tumor cells that naturally express human CEACAM5
T5 construct: whole, on cells; Cell-surface CEACAM5 on tumor cell lines; also called LOVO cells; CEACEM5
T5 sequence (looked up): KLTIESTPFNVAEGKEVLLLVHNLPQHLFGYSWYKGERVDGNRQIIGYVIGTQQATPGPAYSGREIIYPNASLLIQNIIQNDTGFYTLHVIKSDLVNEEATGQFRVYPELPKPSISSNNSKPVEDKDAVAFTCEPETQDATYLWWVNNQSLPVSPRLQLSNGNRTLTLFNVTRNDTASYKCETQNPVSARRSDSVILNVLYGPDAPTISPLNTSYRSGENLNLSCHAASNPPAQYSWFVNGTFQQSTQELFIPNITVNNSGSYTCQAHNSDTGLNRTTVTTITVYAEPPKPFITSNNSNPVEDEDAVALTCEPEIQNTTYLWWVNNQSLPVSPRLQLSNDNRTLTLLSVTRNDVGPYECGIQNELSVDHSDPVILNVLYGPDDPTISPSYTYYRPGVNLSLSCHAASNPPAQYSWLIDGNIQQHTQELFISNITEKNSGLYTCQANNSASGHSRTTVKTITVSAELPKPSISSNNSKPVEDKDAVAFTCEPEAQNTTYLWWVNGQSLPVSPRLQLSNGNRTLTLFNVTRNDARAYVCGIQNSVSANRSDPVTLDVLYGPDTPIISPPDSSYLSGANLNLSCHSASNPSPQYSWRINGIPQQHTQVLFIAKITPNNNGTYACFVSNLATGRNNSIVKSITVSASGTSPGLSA
Protocol: as §1
Furthermore, we used FACS to detect the EC50 of the chimeric antibody UM05-6L binding to LOVO tumor cells that naturally expressed human CEACAM5. […] Based on the above results, the chimeric antibody UM05-6L had excellent binding affinity, specificity and selectivity to CEACAM5.

[5] = biological target: T6, CEACAM7 protein overexpressed on CHO cells (UniProt Q14002 36-242, limits assumed); assay: flow cytometry on CHO-CEACAM7 cells
T6 construct: whole, on cells; also called CHO-CEACAM7
T6 sequence (looked up): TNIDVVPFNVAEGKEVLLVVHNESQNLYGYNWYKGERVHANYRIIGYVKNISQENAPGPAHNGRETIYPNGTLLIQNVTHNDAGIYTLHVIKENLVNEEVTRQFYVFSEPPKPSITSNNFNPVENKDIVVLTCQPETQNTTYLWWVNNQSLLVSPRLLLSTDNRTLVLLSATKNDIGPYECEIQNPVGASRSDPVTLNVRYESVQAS
Protocol: as §1, §2

binding result [1]: no binding (tested: 3 µg/mL)
EC50 (human CEACAM5 protein): 0.0475 mg/L
binding result [2]: no binding (tested: 3 µg/mL)
binding result [3]: no binding (tested: 3 µg/mL)
EC50 [4]: 0.276 mg/L
binding result [5]: no binding (tested: 3 µg/mL)
B1: human-mouse chimeric antibody UM05-6L (antibody, human IgG1, kappa, V domains shown)
VH: EVQLQQSGPELVKPGASVKISCKASGYTFTDYYLNWVKQSPGKSLEWIGNINPINDFTTYNQKFKAKATLTVDKSSTTSYMALRSLTSEDSAVYYCTRYDGYFAYWGQGTTLTVSS
VL: DIQMNQSPSSLSASLGDTITITCHASQNINVWLSWYQQKPGNIPKLLIYKASNLHTGVPSRFSGSGSGTGFTLTISSLQPEDIATYYCQQGQSYPWTFGGGTKLEIKR
notes: expressed in HEK293 cells, purified on Protein A
